Reference: patent publication WO2021244601A1 (dated 2021)

B1: CA304 (antibody, V domains shown)
VH: EVQLQQWGAGLLKPSETLSLTCAVYGGSFSGYYWSWIRQPPGKGLEWIGEVNHSGSTNYNPSLKSRVTISVDTSKNQLSLKLNSVTAADTAVYYCARGNTMVRGVIIPFEYWDKGTLVTVSS
VL: DIVMTQTPLSLPVTLGQPASISCRSSQSLVHSDGNTYLNWFQQRPGQSPRRLIYKVSNRDSGVPDRFSGSGAGTDFTLKISRVEAEDVGVYYCTQATQFPFTFGPGTKVDIKR
B2: CA555 (antibody, V domains shown)
VH: B1 VH
VL: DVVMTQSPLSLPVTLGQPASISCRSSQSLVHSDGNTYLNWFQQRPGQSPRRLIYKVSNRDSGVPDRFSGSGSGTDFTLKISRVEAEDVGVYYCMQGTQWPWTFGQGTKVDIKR

Assays:
Assay in all cases: cell-based or functional assay
[1] = molecular target: S protein on pseudovirus of B.1.1.7 strain (hCoV-19/England/QEUH-F56F0F/2021) (SARS-CoV-2 B.1.1.7 strain)
[2] = molecular target: S protein on pseudovirus of B.1.351 strain (SARS-CoV-2 B.1.351 strain)
[3] = molecular target: S protein on pseudovirus of p.1 strain (SARS-CoV-2 p.1 strain)

Row | Binder | IC50, pseudovirus neutralisation (method as 3.15) [1] | IC50, pseudovirus neutralisation (method as 3.15) [2] | IC50, pseudovirus neutralisation (method as 3.15) [3]
1 | B1 | 4.06 nM | 12.2 nM | 3.53 nM
2 | B2 | 3.17 nM | 13.9 nM | 1.58 nM
